# Test results: US5989875A, “Method of process for producing L-lysine by fermentation” (priority 1995, dated 1999)
# Assays:
# AKIII [1] = assay: Enzyme activity of AKIII and inhibition by L-lysine (cell-free extract); type: biochemical, E. coli
# Text: No. 24, No. 43, No. 48, No. 60, No. 80, No. 117, No. 126, No. 149, No. 150, No. 156, No. 158, No. 167, No. 169 and No. 172 were selected as representative strains of the aforementioned 14 groups. Mutant plasmids derived from pLYSC1 were recovered from each of them, and designated as pLYSC1*24, pLYSC1*43, pLYSC1*48, pLYSC1*60, pLYSC1*80, pLYSC1*117, pLYSC1*126, pLYSC1*149, pLYSC1*150, pLYSC1*156, pLYSC1*158, pLYSC1*167, pLYSC1*169 and pLYSC1*172, respectively. An AK completely deficient strain GT3 was transformed with them and the wild type pLYSC1. A cell-free extract was prepared from each of transformed strains, and the enzyme activity of AKIII was measured.
# The cell-free extract (crude enzyme solution) was prepared as follows. A transformed strain was cultivated in a 2 x TY medium, and collected at an OD660 of about 0.8. Cells were washed with 0.02 M KH2 PO4 (pH 6.75)-0.03 M β-mercaptoethanol under a condition of 0° C., and the cells were disrupted by sonication (0° C., 100 W, 30 minutes×4). A disrupted cell solution was centrifuged at 33 krpm for 1 hour under a condition of 0° C. to obtain a supernatant to which ammonium sulfate was added to give 80% saturation. After centrifugation, a pellet was dissolved in 0.02 M KH2 PO4 (pH 6.75)-0.03 M β-mercaptoethanol, and stored at 0° C. overnight.
# The enzyme activity of AKIII was measured in accordance with a method of Stadtman et al. (Stadtman, E. R., Cohen, G. N., LeBras, G., and Robichon-Szulmajster, H., J. Biol. Chem., 236, 2033 (1961)). Namely, a reaction solution having the following composition was incubated at 27° C. for 45 minutes, and an FeCl3 solution (2.8 N HCl 0.4 ml+12% TCA 0.4 ml+5% FeCl3 ·6H2 O/0.1 N HCl 0.7 ml) was added thereto to develop a color, and it was centrifuged followed by measurement of absorbance of a supernatant at 540 nm. The activity was indicated by an amount of hydroxamic acid generated per minute (1 U=1 μmol/min). The molar absorption coefficient was 600. Potassium aspartate was removed from the reaction solution to be used as a blank.
# In measurement of the enzyme activity of AK, various concentrations of L-lysine were added to the enzyme reaction solution and the degree of inhibition by L-lysine was examined.
# (§1) On the contrary, although the mutant AKIII's obtained this time had various degrees of desensitization, inhibition by L-lysine was desensitized in all of 14 species. […] The specific activity based on total protein, which might be affected by growth situations of cell and preparation of samples, was equal to or more than that of the wild type in almost all cases, and there was little problem of decrease in activity due to the introduction of mutation (Table 3). According to this fact, it was expected that an active center of AKIII was independent from a regulatory site by L-lysine with each other. In Table 3, the inhibition desensitization degree (%) refers to an AK activity in the presence of 100 mM of L-lysine compared with an AK activity in the absence of L-lysine in the reaction solution. The heat stability (%) refers to a ratio of activity maintenance after a treatment at 55° C. for 1.5 hour.
# AKIII [2] = assay: Heat stability of AKIII in vitro; type: biochemical, E. coli; conditions: ratio of activity maintenance after treatment at 55° C. for 1.5 hour
# Text: as §1
# Subsequently, the heat stability of the mutant enzymes was examined. When it is intended that an enzyme is improved to increase its activity, it is important that a created enzyme is maintained stably in cells. […]
# Judging from results of investigation on the inactivation temperature of AKIII under various conditions, the ratio of activity maintenance after a treatment at 55° C. for 90 minutes was measured. […]
molecule,measurement,setting,value
"Wild type: wild type aspartokinase III of E. coli encoded by lysC, SEQ ID NO:8 (protein) MSEIVVSKFGGTSVADFDAMNRSADIVLSDANVRLVVLSASAGITNLLVALAEGLEPGERFEKLDAIRNIQFAILERLRYPNVIREEIERLLENITVLAEAAALATSPALTDELVSHGELMSTLLFVEILRERDVQAQWFDVRKVMRTNDRFGRAEPDIAALAELAALQLLPRLNEGLVITQGFIGSENKGRTTTLGRGGSDYTAALLAEALHASRVDIWTDVPGIYTTDPRVVSAAKRIDEIAFAEAAEMATFGAKVLHPATLLPAVRSDIPVFVGSSKDPRAGGTLVCNKTENPPLFRALALRRNQTLLTLHSLNMLHSRGFLAEVFGILARHNISVDLITTSEVSVALTLDTTGSTSTGDTLLTQSLLMELSALCRVEVEEGLALVALIGNDLSKACGVGKEVFGVLEPFNIRMICYGASSHNLCFLVPGEDAEQVVQKLHSNLFE",Degree of desensitization of inhibition,AKIII [1]; AK activity in the presence of 100 mM of L-lysine compared with AK activity in the absence of L-lysine,0%
same,Specific activity,"AKIII [1]; AKIII, cell-free extract of GT3 transformants, 1 U=1 μmol/min",0.0247 U/mg protein
same,Inhibition of AKIII by L-lysine,"AKIII [1]; various concentrations of L-lysine, FIG. 6",strongly suffered inhibition by L-lysine
same,Heat stability,AKIII [2],18%
